The values below come from US20210380703A1 (RIGEL PHARMACEUTICALS, published 2021).

The target of one assay is T1, Human ACVR2A (human, UniProt P27037 20-135, limits assumed).
T1 construct: also called activin receptor, type II A
Put plainly: ELISA. The procedure, abridged:
(§1)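 Monoclonal antibodies were first applied to human or mouse ACVR2A, alongside biotinylated goat anti-human kappa light chain (positive control) and human Fc (negative control); binding was then determined by ELISA.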
On the technique in general: In an ELISA, binding on a coated surface is turned into a signal by an enzyme label.

The next assay has as its target Mouse ACVR2A (mouse, UniProt P27038 20-135, limits assumed). Put plainly: ELISA. The method in brief:
as §1

The next assay addresses T2, Goat anti-Human Kappa.
T2 construct: Positive control; also called biotinylated goat anti-human kappa light chain
Description: ELISA; positive control. The procedure, abridged: as §1
Note: test concentration or dose not given here.

T1 sequence (P27037 20-135 limits assumed): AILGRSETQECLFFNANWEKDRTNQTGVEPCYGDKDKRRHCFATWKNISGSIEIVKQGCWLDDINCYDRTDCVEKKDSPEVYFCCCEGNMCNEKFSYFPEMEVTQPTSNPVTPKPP
Mouse ACVR2A, sequence (P27038 20-135 limits assumed): as the sequence (P27037 20-135 limits assumed) above, with K20R, V73I counted along it

B1: 375_H08 (antibody, V domains shown)
VH: EVQLLESGGGLVQPGGSLRLSCAASGFTFSSYSMNWVRQAPGKGLEWVSGINYNGGYTSYADSVKGRFTISRDNSKNTLYLQMNSLRAEDTAVYYCARGATWHDTHLDYWGQGTLVTVSS
VL: DIQMTQSPSSLSASVGDRVTITCRASQSILTYLNWYQQKPGKAPKLLIYAATSLASGVPSRFSGSGSGTDFTLTISSLQPEDFATYYCQQSYDSPLTFGGGTKVEIK
notes: VH/VL only
For B1, the values for the optical density in the assay with Human ACVR2A, with Mouse ACVR2A and with Goat anti-Human Kappa were 3.31 OD, 3.28 OD and 3.32 OD, respectively.

B2: 365_H03 (antibody, V domains shown)
VH: EVQLLESGGGLVQPGGSLRLSCAASGFTFDDYGMNWVRQAPGKGLEWVAGINYNGGYKSYADSVKGRFTISRDNSKNTLYLQMNSLRAEDTAVYYCARSANWHDTALDYWGQGTLVTVSS
VL: DIQMTQSPSSLSASVGDRVTITCRASQSILSYVNWYQQKPGKAPKLVIYAATSLHSGVPSRFSGSGSGTDFTLTISSLQPEDFATYYCQQSYNNPLTFGGGTKVEIK
notes: VH/VL only
Consider B2, for which the optical density with Human ACVR2A was 2.32 OD; with Mouse ACVR2A it was 2.65 OD; with Goat anti-Human Kappa, 3.27 OD.

B3: 365_F01 (antibody, V domains shown)
VH: EVQLLESGGGLVQPGGSLRLSCAASGFTFDSYSMNWVRQAPGKGLEWVSGINYNSGYKGYADSVKGRFTISRDNSKNTLYLQMNSLRAEDTAVYYCARSANWHDTHLDYWGQGTLVTVSS
VL: DIQMTQSPSSLSASVGDRVTITCRASQSIVSYLNWYQQKPGKAPKLVIYAATSLASGVPSRFSGSGSGTDFTLTISSLQPEDFATYYCQQSYELPLTFGGGTKVEIK
notes: VH/VL only
Consider B3, for which the optical density turned out to be 2.51 OD with Human ACVR2A, 2.47 OD with Mouse ACVR2A and 3.51 OD with Goat anti-Human Kappa.

B4: 365_C12 (antibody, V domains shown)
VH: EVQLLESGGGLVQPGGSLRLSCAASGFTFSSYGMNWVRQAPGKGLEWVAGINYNSGYKSYADSVKGRFTISRDNSKNTLYLQMNSLRAEDTAVYYCARSANWHDTALDYWGQGTLVTVSS
VL: DIQMTQSPSSLSASVGDRVTITCRASQSIVSYVNWYQQKPGKAPKLVIYAVTSLASGVPSRFSGSGSGTDFTLTISSLQPEDFATYYCQQSYDTPLTFGGGTKVEIK
notes: VH/VL only
B4: the values for the optical density with Human ACVR2A, in the assay with Mouse ACVR2A and with Goat anti-Human Kappa were 1.92 OD, 2.04 OD and 3.58 OD, respectively.

B5: 365_B06 (antibody, V domains shown)
VH: EVQLLESGGGLVQPGGSLRLSCAASGFTFDSYGMHWVRQAPGKGLEWVSNINYNGGYKSYADSVKGRFTISRDNSKNTLYLQMNSLRAEDTAVYYCARSANWHDTALDYWGQGTLVTVSS
VL: DIQMTQSPSSLSASVGDRVTITCRASQSILTYVNWYQQKPGKAPKLLIYATTSLASGVPSRFSGSGSGTDFTLTISSLQPEDFATYYCQQSYDLPLTFGGGTKVEIK
notes: VH/VL only
As to B5, the optical density with Human ACVR2A was determined as 2.25 OD; in the assay with Mouse ACVR2A it was 2.42 OD; in the assay with Goat anti-Human Kappa it was 3.28 OD.

B6: 365_C01 (antibody, V domains shown)
VH: EVQLLESGGGLVQPGGSLRLSCAASGFTFDSYGMNWVRQAPGKGLEWVSSINYNSGYKSYADSVKGRFTISRDNSKNTLYLQMNSLRAEDTAVYYCARSANWHDTHLDYWGQGTLVTVSS
VL: DIQMTQSPSSLSASVGDRVTITCRASQSIVSYLNWYQQKPGKAPKLVIYAVTSRASGVPSRFSGSGSGTDFTLTISSLQPEDFATYYCQQSYESPLTFGGGTKVEIK
notes: VH/VL only
Take B6: the optical density with Human ACVR2A was 2.87 OD; in the assay with Mouse ACVR2A, 3.02 OD; with Goat anti-Human Kappa it was 3.63 OD.

B7: 365_B01 (antibody, V domains shown)
VH: EVQLLESGGGLVQPGGSLRLSCAASGFTFDSYGMHWVRQAPGKGLEWVASINYNSGYTSYADSVKGRFTISRDNSKNTLYLQMNSLRAEDTAVYYCARSANWHDTALDYWGQGTLVTVSS
VL: DIQMTQSPSSLSASVGDRVTITCRASQSISSYVNWYQQKPGKAPKLVIYAATSRASGVPSRFSGSGSGTDFTLTISSLQPEDFATYYCQQSYESPLTFGGGTKVEIK
notes: VH/VL only
For the molecule B7, the optical density with Human ACVR2A is 2.39 OD; with Mouse ACVR2A, 2.65 OD; with Goat anti-Human Kappa, 3.49 OD.

B8: 376_H11 (antibody, V domains shown)
VH: EVQLLESGGGLVQPGGSLRLSCAASGFTFDSYSMNWVRQAPGKGLEWVSNINYNGGYTGYADSVKGRFTISRDNSKNTLYLQMNSLRAEDTAVYYCARGANWHDTALDYWGQGTLVTVSS
VL: DIQMTQSPSSLSASVGDRVTITCRASQSISRYLNWYQQKPGKAPKLLIYAVTSLASGVPSRFSGSGSGTDFTLTISSLQPEDFATYYCQQSYESPLTFGGGTKVEIK
notes: VH/VL only
Consider B8, for which the optical density with Human ACVR2A was 3.29 OD; with Mouse ACVR2A, 3.31 OD; with Goat anti-Human Kappa, 3.43 OD.

B9: 376_H04 (antibody, V domains shown)
VH: EVQLLESGGGLVQPGGSLRLSCAASGFTFSSYSMNWVRQAPGKGLEWVAGINYNGGYKGYADSVKGRFTISRDNSKNTLYLQMNSLRAEDTAVYYCARGANWHDTALDYWGQGTLVTVSS
VL: DIQMTQSPSSLSASVGDRVTITCRASQSILTYVNWYQQKPGKAPKLVIYAATSRASGVPSRFSGSGSGTDFTLTISSLQPEDFATYYCQQSYDLPLTFGGGTKVEIK
notes: VH/VL only
For the molecule B9, the figures for the optical density with Human ACVR2A, with Mouse ACVR2A and with Goat anti-Human Kappa were 3.31 OD, 3.34 OD and 3.51 OD, respectively.

B10: 376_G10 (antibody, V domains shown)
VH: EVQLLESGGGLVQPGGSLRLSCAASGFTFDSYGMNWVRQAPGKGLEWVAGINYNGGYTSYADSVKGRFTISRDNSKNTLYLQMNSLRAEDTAVYYCARGANWHDTALDYWGQGTLVTVSS
VL: DIQMTQSPSSLSASVGDRVTITCRASQSILSYVNWYQQKPGKAPKLLIYAATSRASGVPSRFSGSGSGTDFTLTISSLQPEDFATYYCQQSYESPLTFGGGTKVEIK
notes: VH/VL only
B10: the values for the optical density with Human ACVR2A, in the assay with Mouse ACVR2A and with Goat anti-Human Kappa were 3.54 OD, 3.52 OD and 3.54 OD, respectively.

B11: 376_G06 (antibody, V domains shown)
VH: EVQLLESGGGLVQPGGSLRLSCAASGFTFSSYGMNWVRQAPGKGLEWVAGINYNGGYTGYADSVKGRFTISRDNSKNTLYLQMNSLRAEDTAVYYCARGANWHDTHLDYWGQGTLVTVSS
VL: DIQMTQSPSSLSASVGDRVTITCRASQSIVSYVNWYQQKPGKAPKLVIYAATSRASGVPSRFSGSGSGTDFTLTISSLQPEDFATYYCQQSYNSPLTFGGGTKVEIK
notes: VH/VL only
As to B11, the values for the optical density with Human ACVR2A, with Mouse ACVR2A and with Goat anti-Human Kappa were 3.42 OD, 3.58 OD and 3.49 OD, respectively.

B12: 376_A07 (antibody, V domains shown)
VH: EVQLLESGGGLVQPGGSLRLSCAASGFTFSSYSMNWVRQAPGKGLEWVSGINYNGGYKSYADSVKGRFTISRDNSKNTLYLQMNSLRAEDTAVYYCARGATWHDTHLDYWGQGTLVTVSS
VL: DIQMTQSPSSLSASVGDRVTITCRASQSILTYLNWYQQKPGKAPKLLIYAATSRASGVPSRFSGSGSGTDFTLTISSLQPEDFATYYCQQSYDSPLTFGGGTKVEIK
notes: VH/VL only
As to B12, the optical density with Human ACVR2A was found to be 3.7 OD; with Mouse ACVR2A it was 3.72 OD; with Goat anti-Human Kappa, 3.19 OD.

B13: 376_G05 (antibody, V domains shown)
VH: EVQLLESGGGLVQPGGSLRLSCAASGFTFSSYSMNWVRQAPGKGLEWVAGINYNGGYTSYADSVKGRFTISRDNSKNTLYLQMNSLRAEDTAVYYCARGANWHDTALDYWGQGTLVTVSS
VL: DIQMTQSPSSLSASVGDRVTITCRASQSIISYVNWYQQKPGKAPKLVIYAATSRASGVPSRFSGSGSGTDFTLTISSLQPEDFATYYCQQSYESPLTFGGGTKVEIK
notes: VH/VL only
In the case of B13, the optical density in the assay with Human ACVR2A turned out to be 3.75 OD; in the assay with Mouse ACVR2A, 3.77 OD; with Goat anti-Human Kappa, 3.49 OD.

B14: 376_A05 (antibody, V domains shown)
VH: EVQLLESGGGLVQPGGSLRLSCAASGFTFSSYSMNWVRQAPGKGLEWVAGINYNSGYKGYADSVKGRFTISRDNSKNTLYLQMNSLRAEDTAVYYCARGATWHDTHLDYWGQGTLVTVSS
VL: DIQMTQSPSSLSASVGDRVTITCRASQSILTYLNWYQQKPGKAPKLLIYAATSRASGVPSRFSGSGSGTDFTLTISSLQPEDFATYYCQQSYNTPLTFGGGTKVEIK
notes: VH/VL only
Regarding B14, the optical density is 3.65 OD in the assay with Human ACVR2A, 3.64 OD with Mouse ACVR2A and 3.18 OD with Goat anti-Human Kappa.

B15: 376_H01 (antibody, V domains shown)
VH: EVQLLESGGGLVQPGGSLRLSCAASGFTFSDYSMNWVRQAPGKGLEWVAGINYNGGYKGYADSVKGRFTISRDNSKNTLYLQMNSLRAEDTAVYYCARGANWHDTALDYWGQGTLVTVSS
VL: DIQMTQSPSSLSASVGDRVTITCRASQSILTYLNWYQQKPGKAPKLLIYAATSRASGVPSRFSGSGSGTDFTLTISSLQPEDFATYYCQQSYSTPLTFGGGTKVEIK
notes: VH/VL only
On to B15, for which the optical density with Human ACVR2A is 3.11 OD; in the assay with Mouse ACVR2A it was 3.31 OD; in the assay with Goat anti-Human Kappa it was 3.28 OD.

B16: 376_A02 (antibody, V domains shown)
VH: EVQLLESGGGLVQPGGSLRLSCAASGFTFSSYSMNWVRQAPGKGLEWVAGINYNGGYKSYADSVKGRFTISRDNSKNTLYLQMNSLRAEDTAVYYCARGATWHDTHLDYWGQGTLVTVSS
VL: DIQMTQSPSSLSASVGDRVTITCRASQSILSYLNWYQQKPGKAPKLLIYAATSRASGVPSRFSGSGSGTDFTLTISSLQPEDFATYYCQQSYDLPLTFGGGTKVEIK
notes: VH/VL only
As for B16, the optical density with Human ACVR2A was 3.72 OD; with Mouse ACVR2A, 3.63 OD; with Goat anti-Human Kappa, 3.19 OD.

B17: 376_F06 (antibody, V domains shown)
VH: EVQLLESGGGLVQPGGSLRLSCAASGFTFSSYGMNWVRQAPGKGLEWVSGINYNGGYTGYADSVKGRFTISRDNSKNTLYLQMNSLRAEDTAVYYCARGANWHDTHLDYWGQGTLVTVSS
VL: DIQMTQSPSSLSASVGDRVTITCRASQSILTYVNWYQQKPGKAPKLVIYAATSRASGVPSRFSGSGSGTDFTLTISSLQPEDFATYYCQQSYETPLTFGGGTKVEIK
notes: VH/VL only
Take B17: the optical density with Human ACVR2A was found to be 3.52 OD; in the assay with Mouse ACVR2A, 3.65 OD; with Goat anti-Human Kappa, 3.47 OD.
